Experimental data from patent publication US7943146B2, “Immunizing compositions comprising HIV-1 proviral constructs with an inactive p6 gag TSG101 UEV binding domain capable of producing budding-defective viral particles that remain tethered to the cell surface” (priority 2001, dated 2011).
Residues, ends and D or L forms follow the SMILES beside them. No end group written: not given here.

How the values were obtained:
[1] = tested on: HIV; assay: microbe, parasite or virus in culture; assay type: cell-based, HIV-1; details: human PBMCs
Procedure: Fresh human blood was obtained commercially from Interstate Blood Bank, Inc. (Memphis, Tenn.). The lymphotropic clinical isolate HIV-1ROJO was obtained from a pediatric patient attending the AIDS Clinic at the University of Alabama at Birmingham. The laboratory-adapted HIV-1IIIB strain was propagated and tittered in fresh human PBMCs; pre-titered aliquots of HIV-1ROJO and Hiv-1IIIB were removed from the freezer (−80° C.) and thawed rapidly to room temperature in a biological safety cabinet immediately before use. Phytohemagglutinin (PHA-P) was obtained from Sigma (St. Louis, Mo.) and recombinant IL-2 was obtained from Amgen (San Francisco, Calif.).
Fresh human PBMCs were isolated from screened donors, seronegative for HIV and HBV. Leukophoresed blood was diluted 1:1 with Dulbecco's phosphate buffered saline (PBS), layered over 14 mL of Ficoll-Hypaque density gradient in a 50 mL centrifuge tube and then centrifuged for 30 minutes at 600×g. Banded PBMCs were aspirated from the resulting interface and subsequently washed 2× with PBS by low speed centrifugation. After the final wash, cells were enumerated by trypan blue exclusion and re-suspended at 1×10^7 cells/mL in RPMI 1640 supplemented with 15% Fetal Bovine Serum (FBS), 2 mM L-glutamine, 4 μg/mL PHA-P. The cells were allowed to incubate for 48-72 hours at 37° C. After incubation, PBMCs were centrifuged and reset in RPMI 1640 with 15% FBS, 2 mM L-glutamine, 100 U/ml penicillin, 100 μg/mL streptomycin, 10 μg/mL gentamycin, and 20 U/mL recombinant human IL-2. PBMCs were maintained in this medium at a concentration of 1-2×10^6 cells/mL with biweekly medium changes until used in the assay protocol.
For the standard PBMC assay, PHA-P stimulated cells from at least two normal donors were pooled, diluted in fresh medium to a final concentration of 1×10^6 cells/mL, and plated in the interior wells of 96 well round bottom microplate at 50 μL/well (5×10^4 cells/well). Test drug dilutions were prepared at a 2× concentration in microtiter tubes and […] of each concentration was placed in appropriate wells in a standard format. […] Wells with cells and virus alone were used for virus control. Separate plates were prepared identically without virus for drug cytotoxicity studies using an XTT assay system. The PBMC cultures were maintained for seven days following infection, at which time cell-free supernate samples were collected and assayed for reverse transcriptase activity as described below.
A microtiter based reverse transcriptase (RT) reaction was utilized. See Buckheit et al., AIDS Research and Human Retroviruses 7:295-302 (1991). Tritiated thymidine triphosphate (NEN) (TTP) was resuspended in distilled H2O at 5 Ci/ml. Poly rA and oligo dT were prepared as a stock solution which was kept at −20° C. The RT reaction buffer was prepared fresh on a daily basis and consists of 125 μl 1M EGTA, 125 μl dH2O, 110 μl 10% SDS, 50 μl 1M Tris (pH 7.4), 50 μl 1M DTT, and 40 μl 1M MgCL2. These three solutions were mixed together in a ratio of 2 parts TTP, 1 part poly rA:oligo dT, and 1 part reaction buffer. Ten microliters of this reactions mixture was placed at a round bottom microtiter plate and 15 μl of virus containing supernatant was added and mixed. […] Opti-Fluor-O (Packard) was added to each sample and incorporated radioactivity was quantified utilizing a Wallac 1450 MicroBeta Plus liquid scintillation counter.

[2] = target: T1, Tsg101 (Homo sapiens, UniProt Q99816); assay: Two-hybrid liquid culture β-galactosidase assay; assay type: cell-based; set-up: expressed in transfected cells; details: full length Tsg101, liquid culture; for β-galactosidase activity (in words): p6 point mutants
T1 sequence (Q99816 1-390): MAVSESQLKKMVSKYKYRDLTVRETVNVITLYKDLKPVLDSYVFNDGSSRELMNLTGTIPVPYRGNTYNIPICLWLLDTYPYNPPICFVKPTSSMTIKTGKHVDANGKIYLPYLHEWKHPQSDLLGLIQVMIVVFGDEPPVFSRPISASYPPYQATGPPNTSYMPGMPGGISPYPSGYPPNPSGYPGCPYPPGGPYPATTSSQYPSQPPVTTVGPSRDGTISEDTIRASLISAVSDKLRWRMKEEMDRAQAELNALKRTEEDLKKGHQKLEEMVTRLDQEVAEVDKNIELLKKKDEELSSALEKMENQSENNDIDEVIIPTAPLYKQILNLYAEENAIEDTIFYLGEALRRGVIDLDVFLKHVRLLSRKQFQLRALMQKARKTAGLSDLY
Procedure: The interactions between TSG101 and wild-type p6gag (WT) or the p6gag PTAP (SEQ ID NO:1) mutants were further quantitated by performing liquid culture β-galactosidase assays. Cultures were grown overnight in synthetic media (−Leu, −Trp, +glucose) in 96 well plates, normalized for optical density, and lysed by addition of 6× lysis/substrate solution in 6× Z-buffer (60 mM KCl, 6 mM MgSO4, 360 mM Na2HPO4, 240 mM NaH2PO4, 6 mg/ml CPRG, 0.12 U/ml lyticase, 0.075% NP-40). Cultures were incubated for 2 hr at 37° C., clarified by centrifugation, and the optical absorbance of each supernatant was measured (575 nm). Full length Tsg101 bound wild-type p6 in the two-hybrid liquid culture assay, resulting in high levels of β-galactosidase activity (>300-fold over background). […] Each of these point mutations also arrests HIV-1 budding at a late stage (Huang et al. 1995).

[3] = target: T1, Tsg101; assay: Yeast two-hybrid filter lift assay for β-Gal activity, Tsg101 with p6gag constructs; assay type: cell-based; set-up: expressed in transfected cells; host or cells: Saccharomyces cerevisiae strain Y189; key to Interactions Between Tsg101 and p6gag (β-Gal activity): +: Positive β-Gal activity indicates that the p6gag wild type or mutant protein interacts with Tsg101; details: for Interactions Between Tsg101 and p6gag (β-Gal activity): yeast strain Y189, activation domain-Tsg101 plus binding domain-p6gag construct, X-Gal filter lift
Source text: Yeast two-hybrid assays were utilized to determine the effect of amino acid substitution mutations in the PTAP (SEQ ID NO:1) motif of HIV p6gag on the interaction between Tsg101 and p6gag. To prepare a yeast two-hybrid activation domain-Tsg101 construct, a DNA fragment encompassing the full-length coding sequence for Tsg101 according to GenBank Accession No. U82130 was obtained by PCR from a human fetal brain cDNA library and cloned into the EcoRI/Pst1 sites of the activation domain parent plasmid GADpN2 (LEU2, CEN4, ARS1, ADH1p-SV40NLS-GAL4 (768-881)-MCS (multiple cloning site)-PGKlt, AmpR, ColE1_ori).
To prepare the yeast two-hybrid DNA binding domain-HIV1 p6gag construct, a DNA fragment corresponding to the HIV1 p6 peptide derived from the HIV1.NL43 strain GAG protein was obtained by PCR from the NL43 containing plasmid R9Δapa and was cloned into the EcoRI/Sal1 sites of the binding domain parent plasmid pGBT.Q. The sequence of the amplified insert is shown in SEQ ID NO:34.
The following amino acid substitution mutations were introduced by PCR into the HIV1 p6gag sequence in the yeast two-hybrid binding domain-HIV1 p6gag construct described above. The mutations were verified by DNA sequence analysis.
To test the effect of the mutations, yeast cells of the strain Y189 purchased from Clontech (ura3-52 his3*200 ade2-101 trp1-901 leu2-3,112 met gal4 gal80 URA3::GAL1p-lacZ) were co-transformed with the activation domain-Tsg101 construct and one of the binding domain-mutant p6gag constructs or the binding domain-wild type p6gag construct. Filter lift assays for β-Gal activity were conducted by lifting the transformed yeast colonies with filters, lysing the yeast cells by freezing and thawing, and contacting the lysed cells with X-Gal. […] All binding domain constructs were also tested for self-activation of β-Gal activity.

Molecule	Comments (anti-HIV activity) [1]	β-galactosidase activity (in words) [2]	also measured
C[C@H](NC(=O)[C@@H](NC(=O)[C@@H]1CCCN1C(=O)[C@H](CCC(=O)O)NC(=O)[C@@H]1CCCN1C(=O)[C@H](CCCNC(=N)N)NC(=O)[C@H](CCCNC(=N)N)NC(=O)[C@H](CCCNC(=N)N)NC(=O)[C@H](CCCNC(=N)N)NC(=O)[C@H](CCCNC(=N)N)NC(=O)[C@H](CCCNC(=N)N)NC(=O)[C@H](CCCNC(=N)N)NC(=O)[C@H](CCCNC(=N)N)NC(=O)[C@@H](N)CCCNC(=N)N)[C@@H](C)O)C(=O)N1CCC[C@H]1C(=O)N[C@@H](CCC(=O)O)C(=O)N[C@@H](CCC(=O)O)C(=O)O [MPI-PEP1, NH2—(R)9-PEPTAPEE-COOH] (H-RRRRRRRRRPEPTAPEE-OH)	Active		
CC(C)C[C@H](NC(=O)[C@H](C)NC(=O)[C@@H](NC(=O)[C@@H]1CCCN1C(=O)[C@H](CCC(=O)O)NC(=O)[C@@H]1CCCN1C(=O)[C@H](CCCNC(=N)N)NC(=O)[C@H](CCCNC(=N)N)NC(=O)[C@H](CCCNC(=N)N)NC(=O)[C@H](CCCNC(=N)N)NC(=O)[C@H](CCCNC(=N)N)NC(=O)[C@H](CCCNC(=N)N)NC(=O)[C@H](CCCNC(=N)N)NC(=O)[C@H](CCCNC(=N)N)NC(=O)[C@@H](N)CCCNC(=N)N)[C@@H](C)O)C(=O)N[C@@H](CCC(=O)O)C(=O)N[C@@H](CCC(=O)O)C(=O)O [MPI-PEP2, NH2—(R)9-PEPTALEE-COOH] (H-RRRRRRRRRPEPTALEE-OH)	Inactive		
C[C@H](NC(=O)[C@@H](NC(=O)[C@@H]1CCCN1C(=O)[C@H](CCC(=O)O)NC(=O)[C@@H]1CCCN1C(=O)[C@@H](N)CCCNC(=N)N)[C@@H](C)O)C(=O)N1CCC[C@H]1C(N)=O [MPI-PEP3, NH2-RPEPTAP-CO—NH2] (H-RPEPTAP-NH2)	Inactive		
p6(A9R): HIV1 p6gag binding domain construct with A9R substitution in the PTAP motif (LQSRPEPTRPPEESFRFGEETTTPSQKQEPIDKELYPLASLRSLFGSDPSSQ; not fully specified)		reduced β-galactosidase activity to background levels	
p6(E6G): HIV1 p6gag binding domain construct with E6G substitution outside the PTAP motif (LQSRPGPTAPPEESFRFGEETTTPSQKQEPIDKELYPLASLRSLFGSDPSSQ; not fully specified)			Tsg101-p6gag interaction (in words) ([3]; summary of Table II): did not result in the elimination of the Tsg101-p6gag interaction; Interactions Between Tsg101 and p6gag (β-Gal activity) [3]: +
p6(P7L): HIV1 p6gag binding domain construct with P7L substitution in the PTAP motif (LQSRPELTAPPEESFRFGEETTTPSQKQEPIDKELYPLASLRSLFGSDPSSQ; not fully specified)		reduced β-galactosidase activity to background levels	
p6(P10L): HIV1 p6gag binding domain construct with P10L substitution in the PTAP motif (LQSRPEPTALPEESFRFGEETTTPSQKQEPIDKELYPLASLRSLFGSDPSSQ; not fully specified)		reduced β-galactosidase activity to background levels	
p6(wt): wild type HIV1 p6gag (NL43 strain) as yeast two-hybrid DNA binding domain construct			β-galactosidase activity ([2]; absorbance 575 nm): > 300 fold over background; Interactions Between Tsg101 and p6gag (β-Gal activity) [3]: +
